# Measurements published in patent US20040082512A1.
# Molecular target: ZOT receptor of rabbit ileum
# Assay: cell-based or functional assay
substance,measurement,value
"FZI/0, synthetic octapeptide Gly Gly Val Leu Val Gln Pro Gly",decrease of the effect of ZOT (6xHis-ZOT) on Rt of rabbit ileum after 20 min pre-treatment with FZI/0,75%
same,decrease of the effect of zonulinh on Rt of rabbit ileum after 20 min pre-treatment with FZI/0,100%
same,decrease of the effect of zonulini on Rt of rabbit ileum after 20 min pre-treatment with FZI/0,97%
